According to publication PMC5296656:

Target: RpL4 (as it stands in the Acl4·RpL4 complex) (not stated (S. cerevisiae or C. thermophilum cDNA cloned))
Assay: SEC; Superdex 200 10/300 GL, 20 mM TRIS pH 8.0, 100 mM NaCl, 5 mM DTT; pre-incubation 1 h at 4 °C; fractions on SDS-PAGE, Coomassie

Acl4 (untagged, purified) (natural protein)
stoichiometry N (Acl4 per RpL4): 2
